Experimental data reported in US20210002644, “ANTI-CHYMASE APTAMER AND USE FOR SAME” (RIBOMIC INC., published 2021).

T1: chymase (native, human skin mast cell) (Homo sapiens, UniProt P23946 P23946:22-247)
T1 sequence: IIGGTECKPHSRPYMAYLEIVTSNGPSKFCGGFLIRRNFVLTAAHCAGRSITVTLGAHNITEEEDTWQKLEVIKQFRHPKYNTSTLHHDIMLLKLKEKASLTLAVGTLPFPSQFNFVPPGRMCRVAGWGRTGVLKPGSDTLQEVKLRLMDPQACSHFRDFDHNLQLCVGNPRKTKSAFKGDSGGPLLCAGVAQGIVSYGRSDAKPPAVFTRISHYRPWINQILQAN

B1: SEQ ID NO: 17(9) (mixed)
RNA: GAUGAUCGGACAUAACAUUGUUGGGGUGUCAA
modifications: idT-G(M)A(M)U(F)G(M)A(M)U(F)C(F)G(M)G(M)A(M)C(F)A(M)U(F)AAC(M)A(M)TTG(M)U(F)U(F)G(M)GG(M)G(M)TG(M)TCA(M)A(M)-idT (F=2'-F, M=2'-OMe)
B2: SEQ ID NO: 17(2) (ssRNA)
RNA: B1 RNA
modifications: idT-G(M)A(M)U(F)G(M)A(M)U(F)C(F)G(M)G(M)A(M)C(F)A(M)U(F)AAC(F)AU(F)U(F)G(M)U(F)U(F)G(M)GG(M)G(M)U(F)G(M)U(F)C(F)A(M)A(M)-idT (F=2'-F, M=2'-OMe)
B3: SEQ ID NO: 17(4) (mixed)
RNA: B1 RNA
modifications: idT-G(M)A(M)U(F)G(M)A(M)U(F)C(F)G(M)G(M)A(M)C(F)A(M)U(F)AAC(F)ATTG(M)U(F)U(F)G(M)GG(M)G(M)U(F)G(M)U(F)C(F)A(M)A(M)-idT (F=2'-F, M=2'-OMe)
B4: SEQ ID NO: 17(17) (mixed)
RNA: B1 RNA
modifications: idT-G(M)A(M)U(F)G(M)A(M)U(F)C(F)G(M)G(M)A(M)C(F)A(M)U(F)AAC(F)A(M)TTG(M)U(F)U(F)G(M)GG(M)G(M)TG(M)TCA(M)A(PHE)-idT (F=2'-F, M=2'-OMe, PHE=8-(propyl)phenyl-rA)
B5: SEQ ID NO: 17(8) (mixed)
RNA: B1 RNA
modifications: idT-G(M)A(M)U(F)G(M)A(M)U(F)C(F)G(M)G(M)A(M)C(F)A(M)U(M)AAC(F)A(M)TTG(M)U(F)U(F)G(M)GG(M)G(M)TG(M)TCA(M)A(M)-idT (F=2'-F, M=2'-OMe)
B6: SEQ ID NO: 17(16) (mixed)
RNA: B1 RNA
modifications: idT-G(M)A(M)U(F)G(M)A(M)U(F)C(F)G(M)G(M)A(M)C(F)A(M)U(F)AAC(F)A(M)TTG(M)U(F)U(F)G(M)GG(M)G(M)TG(M)TCA(PHE)A(M)-idT (F=2'-F, M=2'-OMe, PHE=8-(propyl)phenyl-rA)
B7: SEQ ID NO: 17(13) (mixed)
RNA: B1 RNA
modifications: Y-S-G(M)A(M)U(F)G(M)A(M)U(F)C(F)G(M)G(M)A(M)C(F)A(M)U(F)AAC(F)A(M)TTG(M)U(F)U(F)G(M)GG(M)G(M)TG(M)TCA(M)A(M)-idT (F=2'-F, M=2'-OMe; Y=Cys-Phe peptide, S=thiol)
B8: SEQ ID NO: 17(12) (mixed)
RNA: B1 RNA
modifications: X-S-G(M)A(M)U(F)G(M)A(M)U(F)C(F)G(M)G(M)A(M)C(F)A(M)U(F)AAC(F)A(M)TTG(M)U(F)U(F)G(M)GG(M)G(M)TG(M)TCA(M)A(M)-idT (F=2'-F, M=2'-OMe; X=Phe-Cys peptide, S=thiol)
B9: SEQ ID NO: 17(5) (mixed)
RNA: B1 RNA
modifications: idT-G(M)A(M)U(F)G(M)A(M)U(F)C(F)G(M)G(M)A(M)C(F)A(M)U(F)AAC(F)ATTG(M)U(F)U(F)G(M)GG(M)G(M)TG(M)TCA(M)A(M)-idT (F=2'-F, M=2'-OMe)
B10: SEQ ID NO: 17(14) (mixed)
RNA: B1 RNA
modifications: idT-G(M)A(M)U(F)G(M)A(M)U(F)C(F)G(M)G(M)A(M)C(F)A(M)U(F)AAC(F)A(M)TTG(M)U(F)U(F)G(M)GG(M)G(M)TG(M)TCA(M)A(M)-S-Y (F=2'-F, M=2'-OMe; Y=Cys-Phe peptide, S=thiol)
B11: SEQ ID NO: 17(21) (mixed)
RNA: B1 RNA
modifications: idT-G(M)A(M)U(F)G(M)A(M)U(F)C(F)G(M)G(M)A(M)C(F)A(M)U(F)AAC(F)A(M)TTG(M)U(F)U(F)G(M)GsG(M)G(M)TG(M)TCA(M)A(M)-idT (F=2'-F, M=2'-OMe, s=PS)
B12: SEQ ID NO: 17(19) (mixed)
RNA: B1 RNA
modifications: idT-G(M)A(M)U(F)G(M)A(M)U(F)C(F)G(M)G(M)A(M)C(F)A(M)U(F)AsAC(F)A(M)TTG(M)U(F)U(F)G(M)GG(M)G(M)TG(M)TCA(M)A(M)-idT (F=2'-F, M=2'-OMe, s=PS)
B13: SEQ ID NO: 17(7) (mixed)
RNA: B1 RNA
modifications: idT-G(M)A(M)TG(M)A(M)U(F)C(F)G(M)G(M)A(M)CA(M)U(F)AAC(F)A(M)TTG(M)U(F)U(F)G(M)GG(M)G(M)TG(M)TCA(M)A(M)-idT (F=2'-F, M=2'-OMe; printed LT(F) read as U(F))
B14: SEQ ID NO: 17(20) (mixed)
RNA: B1 RNA
modifications: idT-G(M)A(M)U(F)G(M)A(M)U(F)C(F)G(M)G(M)A(M)C(F)A(M)U(F)AAsC(F)A(M)TTG(M)U(F)U(F)G(M)GG(M)G(M)TG(M)TCA(M)A(M)-idT (F=2'-F, M=2'-OMe, s=PS)

The binders below were run against T1, chymase (native, human skin mast cell) (assay: inhibition; angiotensin I substrate). Details: tags: Calbiochem Human Skin.
Method: (§1) The total volume of solution for an enzyme reaction in the assay was set to 50 μL, and the reaction was performed in solution C buffer. At first, native (manufactured by Calbiochem) was diluted with solution C to give 5 μL thereof. Here, the native is chymase purified from human skin mast cell. The nucleic acid was serially diluted with solution C at a concentration of 0.0027-2 μM to give 25 μL thereof. The chymase solution (5 μL) and the nucleic acid solution (25 μL) were mixed, and the mixture was incubated at 37° C. for 5 min. On the other hand, […] angiotensin I (manufactured by PEPTIDE […], INC.) was prepared in solution C to give 20 μL thereof, which was incubated at 37° C. for 5 min. The angiotensin I solution was added to a mixture of chymase and nucleic acid to start an enzyme reaction. The final chymase concentration of the reaction solution was 0.5 nM, and the final substrate concentration was 50 μM. After reaction at 37° C. for 90 min, ice-cooled 30% trichloroacetic acid solution (25 μL) was added to quench the reaction. The whole mixture was centrifuged at 4° C., 14000 rpm for 10 min, and the supernatant (30 μL) was used for the next fluorescence induction reaction.
(§2) The above-mentioned supernatant (30 μL) was added to a 96 well plate (black, manufactured by Costar), a solution (15 μL) of 2% o-phthalaldehyde (manufactured by SIGMA) in methanol and 0.3M NaOH solution (170 μL) were added to each well, and the mixture was incubated at room temperature for 10 min. Then, 3M HCl solution (25 μL) was added to quench the reaction. The plate was set on a microplate reader SpectraMax190 (manufactured by Molecular device) and the fluorescence intensity was measured at an excitation wavelength of 355 nm and a fluorescence wavelength of 460 nm.
The nucleic acids of SEQ ID NO: 11-20 were all produced by chemical synthesis. In the evaluation of SEQ ID NO: 11-20, a method similar to the evaluation method of inhibitory activity against chymase shown in Example 1 by using angiotensin I as a substrate was used for measurement. […] The IC₅₀ value is a mean of 2 or 3 measurements.

Row | Binder | IC50 [nM]
1 | UGAUCGGACAUAACAUUGUUGGGGUGUCAA (ssRNA, 2'-F pyrimidines (U, C); purines 2'-OH) [SEQ ID NO: 18] | 2.1
2 | GGCAGAUGAUCGGACAUAACAUUGUUGGGGUGUCAAGCC (ssRNA, 2'-F pyrimidines (U, C); purines 2'-OH) [SEQ ID NO: 14] | 6.8
3 | GGGUCAGAUGAUCGGACAUAACAUUGUUGGGGUGUCAAGGCCC (ssRNA, 2'-F pyrimidines (U, C); purines 2'-OH) [SEQ ID NO: 11] | 54.7
4 | GAUGAUCGGACAUAACAUUGUUGGGGUGUCA (ssRNA, 2'-F pyrimidines (U, C); purines 2'-OH) [SEQ ID NO: 20] | 1.8
5 | AUCGGACAUAACAUUGUUGGGGUGUCAA (ssRNA, 2'-F pyrimidines (U, C); purines 2'-OH) [SEQ ID NO: 19] | 14.4
6 | GGCAGAUGAUCGGACAUAACAUUGUUGGGGUGUCAA (ssRNA, 2'-F pyrimidines (U, C); purines 2'-OH) [SEQ ID NO: 16] | 2
7 | GAUGAUCGGACAUAACAUUGUUGGGGUGUCAA (ssRNA, 2'-F pyrimidines (U, C); purines 2'-OH) [SEQ ID NO: 17] | 1.4
8 | GAUGAUCGGACAUAACAUUGUUGGGGUGUCAAGCC (ssRNA, 2'-F pyrimidines (U, C); purines 2'-OH) [SEQ ID NO: 15] | 1.4

Biological target: T1, chymase (native, human skin mast cell)
Assay: inhibition; angiotensin I substrate
Details: tags: Calbiochem Human Skin
Remark: another data set of the same source
Method: as §1, §2
All nucleic acids of SEQ ID NO: 17(1)-17(25) were prepared by chemical synthesis. In the evaluation of SEQ ID NO: 17(1)-17(25), a method similar to the evaluation method of inhibitory activity against chymase shown in Example 1 by using angiotensin I as a substrate was used for measurement. In the Table, the IC₅₀ value is a mean of 2 or 3 measurements.

Row | Binder | IC50 [nM]
9 | B1 | 0.16
10 | B2 | 0.21
11 | B3 | 0.2
12 | B4 | 0.19
13 | B5 | 0.13
14 | B6 | 0.18
15 | B7 | 0.16
16 | B8 | 0.19
17 | B9 | 0.17
18 | B10 | 0.19
19 | B11 | 0.19
20 | B12 | 0.19
21 | B13 | 0.17
22 | B14 | 0.18
